Results taken from IntAct's records for PubMed 17496148.

B1: Anti-sigma-E factor RseA (Escherichia coli (strain K12)), P0AFX7 (parent)
chain: MQKEQLSALMDGETLDSELLNELAHNPEMQKTWESYHLIRDSMRGDTPEVLHFDISSRVMAAIEEEPVRQPATLIPEAQPAPHQWQKMPFWQKVRPWAAQLTQMGVAACVSLAVIVGVQHYNGQSETSQQPETPVFNTLPMMGKASPVSLGVPSEATANNGQQQQVQEQRRRINAMLQDYELQRRLHSEQLQFEQAQTQQAAVQVPGIQTLGTQSQ
partner: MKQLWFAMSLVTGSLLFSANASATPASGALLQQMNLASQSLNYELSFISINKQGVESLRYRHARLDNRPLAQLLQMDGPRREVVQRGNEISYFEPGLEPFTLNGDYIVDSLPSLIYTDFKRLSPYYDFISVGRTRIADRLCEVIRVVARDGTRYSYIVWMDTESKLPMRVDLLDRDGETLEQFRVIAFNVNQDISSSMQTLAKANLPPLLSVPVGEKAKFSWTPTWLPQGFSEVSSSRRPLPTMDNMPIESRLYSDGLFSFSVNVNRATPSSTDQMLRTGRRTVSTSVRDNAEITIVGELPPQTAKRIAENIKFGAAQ

Variants of: B1
Details: with rseb_ecoli rseB

Effect of a mutation on the interaction, disrupting interaction strength:
R184E;R185E
R184A;R185A
R171A;R172A
R171E;R172E
